Patent US5985836A, “Alpha-1 proteinase inhibitor binding peptides” (Bayer Corporation, priority 1998, dated 1999)
Ends that are not written are not given here.

Columns and labels:
A1PI [1] = target: T1, A1PI (Homo sapiens, UniProt P01009); assay: A1PI binding on peptide-resin column, injection of 1 mg A1PI in equilibration buffer; conditions: for % of Total A1PI Eluted by Fraction (Based on Absorbance at 280 nm), 1M NaCl / % of Total A1PI Eluted by Fraction (Based on Absorbance at 280 nm), 2% Acetic Acid / % of Total A1PI Eluted by Fraction (Based on Absorbance at 280 nm), Flowthrough: Trp position mutations, 1 mg A1PI
T1 construct: Human plasma is currently the only approved source of therapeutic AlPI
T1 sequence (P01009 25-418): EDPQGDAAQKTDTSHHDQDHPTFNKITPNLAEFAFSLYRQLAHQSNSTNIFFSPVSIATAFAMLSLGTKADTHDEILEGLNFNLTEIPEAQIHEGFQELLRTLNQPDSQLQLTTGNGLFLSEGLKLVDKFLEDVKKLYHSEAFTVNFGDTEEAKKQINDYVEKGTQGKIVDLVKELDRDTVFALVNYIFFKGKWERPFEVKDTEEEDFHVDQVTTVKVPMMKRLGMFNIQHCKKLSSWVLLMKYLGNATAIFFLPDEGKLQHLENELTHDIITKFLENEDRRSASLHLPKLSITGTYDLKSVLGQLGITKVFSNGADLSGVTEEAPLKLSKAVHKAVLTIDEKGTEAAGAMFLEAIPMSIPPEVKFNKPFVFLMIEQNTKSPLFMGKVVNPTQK
Method in brief: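 Peptides synthesized on A-Totda-Toyopearl chelate resin (0.1 mmole/g) packed in 0.4×5 cm columns; 1 mg A1PI injected in equilibration buffer at 4 °C or 20 °C, 865 or 523 μl/min. Flowthrough, 1M/3M NaCl washes and 2% acetic acid eluate quantified by A280 or immunonephelometry as percent of total eluted.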

A1PI [2] = target: T1, A1PI; assay: A1PI purification from 5 mg hSA + 1 mg A1PI on peptide column, A1PI mass balance; assay type: binding; conditions: for Mass AlPI Eluted in Acid Eluate: nephelometry
Method in brief: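 Peptides on A-Totda-Toyopearl resin (0.1 mmole/g) in 0.4×5 cm columns; 5 mg hSA + 1 mg A1PI loaded at 4 °C or 20 °C with 10 min residence (17 μl/min). Steps of 1M and 3M NaCl, then 2% acetic acid; fractions quantified by immunonephelometry for mass balance.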

A1PI [3] = target: T1, A1PI; assay: Purification of A1PI from Effluent II+III on peptide column, A1PI mass balance; assay type: binding; conditions: 1 ml Eff. II+III, 4° C.
Method in brief: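 Run at 4° C: Effluent II+III (1 ml, 20% ethanol) loaded with a 10 min residence. Elution at 865 μl/min, in sequence 1M NaCl, 3M NaCl, 2% acetic acid; A1PI, IgA, IgG and haptoglobin accounted for in each fraction.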

Immunoglobulin A (IgA) = assay: Purification from Effluent II+III, IgA mass balance; assay type: binding, human; conditions: 1 ml Eff. II+III, 4° C.
Procedure: (§1) Sequences 1-11 and 15 were assayed with Effluent II+III (Eff. II+III). Eff. II+III is a process intermediate in the Cohn plasma fractionation process. The feed stream contains 20% (by volume) ethanol, 20-25 mg/ml hSA and approximately 1 mg/ml AlPI. The stream also contains other proteins including anti-thrombin III (AT3), immunoglobin G (IgG), immunoglobin A (IgA), apolipoprotein alpha-1 (Apo A-1), transferrin (Trf), haptoglobin (Hpt), and alpha-1 acid glycoprotein (AAG) at concentrations ranging from 0.1-1 mg/ml.
(§2) The columns were assayed using the same technique as the hSA+AlPI experiments, allowing for a 10 minute residence time followed by a constant flow rate of 865 μl/min with step elutions of 1M NaCl, 3M NaCl, and 2% acetic acid. All experiments were conducted at 4° C. The mass balances for the injection of 1 ml Eff. […] The AlPI was enriched from 3% of the total protein in the feed to upwards of 50% in the acid eluate.

Immunoglobulin G (IgG) = assay: Purification from Effluent II+III, IgG mass balance; assay type: binding, human; conditions: 1 ml Eff. II+III, 4° C.
Procedure: as §1, §2

[4] = target: T2, apolipoprotein alpha-1 (Apo A-1) (Homo sapiens, UniProt P02647); assay: Purification from Effluent II+III, Apo A-1 mass balance; assay type: binding; conditions: 1 ml Eff. II+III, 4° C.
T2 construct: Eff; II+III is a process intermediate in the Cohn plasma fractionation process; tissue Bayer Corporation (Clayton, N.C.); host or cells: plasma fraction: Cohn Effluent II+III
T2 sequence (P02647 19-267): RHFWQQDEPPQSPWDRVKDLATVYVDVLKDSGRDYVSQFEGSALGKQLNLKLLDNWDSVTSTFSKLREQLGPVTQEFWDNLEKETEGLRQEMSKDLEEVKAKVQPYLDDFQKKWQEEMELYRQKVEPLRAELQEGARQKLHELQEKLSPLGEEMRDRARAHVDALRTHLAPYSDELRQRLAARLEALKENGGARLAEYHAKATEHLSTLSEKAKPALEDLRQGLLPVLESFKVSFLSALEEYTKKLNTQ
Procedure: as §1, §2

A1PI [5] = target: T1, A1PI; assay: A1PI yield from dialyzed (aqueous) Effluent II+III; assay type: binding; conditions: 4° C.
Procedure: Effluent II+III was dialyzed against equilibration buffer at 4° C. to remove the ethanol using a 15,000 molecular weight cut-off membrane. Nephelometry of the Eff. […] A portion of the identified sequences were assayed under the same conditions applied for neat Eff. II+III at 4° C. […] II+III compared to the neat, ethanol-containing feed. The binding strength differed for the aqueous feed as more AlPI eluted in 1M NaCl for the aqueous feed. The AlPI eluted in the 1M NaCl fractions was not as enriched as that eluted in the acid eluates.

[6] = 1 mg A1PI in equilibration buffer, 4° C.
[7] = 1 mg A1PI in equilibration buffer, 20° C.
[8] = A1PI, 5 mg hSA + 1 mg A1PI, 4° C., * Below detection limit
[9] = A1PI, 5 mg hSA + 1 mg A1PI, 4° C., relative to total eluted
[10] = A1PI, 5 mg hSA + 1 mg A1PI, 20° C., * Below detection limit
[11] = A1PI, 5 mg hSA + 1 mg A1PI, 20° C., relative to total eluted
[12] = A1PI, * as in Tables 4, 5 (below detection limit)
[13] = * as in Tables 4, 5 (below detection limit)
[14] = 1 ml dialyzed Eff. II+III (ethanol removed)
[15] = A1PI, 1 ml dialyzed Eff. II+III
[16] = Table 10, A1PI, 5 mg hSA + 1 mg A1PI, 4° C., * Below detection limit
[17] = Table 10, A1PI, 5 mg hSA + 1 mg A1PI, 4° C., relative to total loaded
[18] = Table 10, A1PI, 5 mg hSA + 1 mg A1PI, 20° C., * Below detection limit
[19] = Table 10, A1PI, 5 mg hSA + 1 mg A1PI, 20° C., relative to total loaded
[20] = Table 11, * Below detection limit

## RLWRYG
A1PI [1]; [6]
  Percent A1PI Eluted by Fraction Based on Absorbance at 280 nm, 1M NaCl: 88%
  Percent A1PI Eluted by Fraction Based on Absorbance at 280 nm, 2% Acetic Acid: 12%
  Percent A1PI Eluted by Fraction Based on Absorbance at 280 nm, Flowthrough: 0%
A1PI [1]; [7]
  Percent A1PI Eluted by Fraction, 1M NaCl: 88%
  Percent A1PI Eluted by Fraction, 2% Acetic Acid: 12%
  Percent A1PI Eluted by Fraction, Flowthrough: 0%
A1PI [2]; 250 μg AlPI injected with 5 mg hSA, 20° C.
  Mass AlPI Eluted in Acid Eluate: 0.07 mg
A1PI [2]; 500 μg AlPI injected with 5 mg hSA, 20° C.
  Mass AlPI Eluted in Acid Eluate: 0.15 mg
A1PI [2]; 1000 μg AlPI injected with 5 mg hSA, 20° C.
  Mass AlPI Eluted in Acid Eluate: 0.39 mg
A1PI [2]; [8]
  Mass Protein per Eluate Fraction, 1M NaCl: 0.50 mg
  Mass Protein per Eluate Fraction, 2% Ac. Acid: 0.11 mg
  Mass Protein per Eluate Fraction, Flow: 0.01 mg
A1PI [2]; [9]
  Percent Eluted by Fraction, 1M NaCl: 80%
  Percent Eluted by Fraction, 2% Ac. Acid: 18%
  Percent Eluted by Fraction, 3M NaCl: 0%
  Percent Eluted by Fraction, Flow: 2%
A1PI [2]; [10]
  Mass Protein per Eluate Fraction, 1M NaCl: 0.42 mg
  Mass Protein per Eluate Fraction, 2% Ac. Acid: 0.45 mg
  Mass Protein per Eluate Fraction, 3M NaCl: 0.00 mg
A1PI [2]; [11]
  Percent Eluted by Fraction, 1M NaCl: 48%
  Percent Eluted by Fraction, 2% Ac. Acid: 52%
  Percent Eluted by Fraction, 3M NaCl: 0%
  Percent Eluted by Fraction, Flow: 0%
A1PI [3]; A1PI
  Percent Eluted by Fraction, 1M NaCl: 22%
  Percent Eluted by Fraction, 2% Acetic Acid: 14%
  Percent Eluted by Fraction, 3M NaCl: 0%
  Percent Eluted by Fraction, Flow: 64%
A1PI [3]; [12]
  Mass Protein per Eluate Fraction, 1M NaCl: 0.20 mg
  Mass Protein per Eluate Fraction, 2% Acetic Acid: 0.13 mg
  Mass Protein per Eluate Fraction, Flow: 0.59 mg
Immunoglobulin A (IgA)
  Percent Eluted by Fraction, 1M NaCl: 0%
  Percent Eluted by Fraction, 2% Acetic Acid: 31%
  Percent Eluted by Fraction, 3M NaCl: 0%
  Percent Eluted by Fraction, Flow: 69%
Immunoglobulin A (IgA); [13]
  Mass Protein per Eluate Fraction, 2% Acetic Acid: 0.09 mg
  Mass Protein per Eluate Fraction, Flow: 0.19 mg
Immunoglobulin G (IgG)
  Percent Eluted by Fraction, 1M NaCl: 0%
  Percent Eluted by Fraction, 2% Acetic Acid: 0%
  Percent Eluted by Fraction, 3M NaCl: 0%
  Percent Eluted by Fraction, Flow: 100%
Immunoglobulin G (IgG); [13]
  Mass Protein per Eluate Fraction, Flow: 0.27 mg
[4]
  Percent Eluted by Fraction, 1M NaCl: 0%
  Percent Eluted by Fraction, 2% Acetic Acid: 100%
  Percent Eluted by Fraction, 3M NaCl: 0%
  Percent Eluted by Fraction, Flow: 0%
[4]; [13]
  Mass Protein per Eluate Fraction, 2% Acetic Acid: 0.35 mg

## VIYLVR: VIWLVR with Trp at position 3 replaced by Tyr
A1PI [1]; 4° C.
  % of Total A1PI Eluted by Fraction (Based on Absorbance at 280 nm), 1M NaCl: 28%
  % of Total A1PI Eluted by Fraction (Based on Absorbance at 280 nm), 2% Acetic Acid: 72%
  % of Total A1PI Eluted by Fraction (Based on Absorbance at 280 nm), Flowthrough: 0%
A1PI [1]; 20° C.
  % of Total A1PI Eluted by Fraction (Based on Absorbance at 280 nm), 1M NaCl: 15%
  % of Total A1PI Eluted by Fraction (Based on Absorbance at 280 nm), 2% Acetic Acid: 85%
  % of Total A1PI Eluted by Fraction (Based on Absorbance at 280 nm), Flowthrough: 0%
A1PI [5]; [14]
  Mass A1PI per Eluate Fraction, 1M NaCl: 0.12 mg
  Mass A1PI per Eluate Fraction, 2% Acetic Acid: 0.16 mg
  Mass A1PI per Eluate Fraction, Flowthrough: 0.46 mg
A1PI [5]; [15]
  Percent Eluted by Fraction, 1M NaCl: 16%
  Percent Eluted by Fraction, 2% Acetic Acid: 22%
  Percent Eluted by Fraction, Flowthrough: 62%
A1PI [2]; [16]
  Mass Protein per Eluate Fraction, 1M NaCl: 0.12 mg
  Mass Protein per Eluate Fraction, 2% Acetic Acid: 0.75 mg
  Mass Protein per Eluate Fraction, Flow: 0.12 mg
A1PI [2]; [17]
  Percent Eluted by Fraction, 1M NaCl: 12%
  Percent Eluted by Fraction, 2% Acetic Acid: 76%
  Percent Eluted by Fraction, 3M NaCl: 0%
  Percent Eluted by Fraction, Flow: 12%
A1PI [2]; [18]
  Mass Protein per Eluate Fraction, 1M NaCl: 0.07 mg
  Mass Protein per Eluate Fraction, 2% Acetic Acid: 0.48 mg
  Mass Protein per Eluate Fraction, Flow: 0.13 mg
A1PI [2]; [19]
  Percent Eluted by Fraction, 1M NaCl: 11%
  Percent Eluted by Fraction, 2% Acetic Acid: 70%
  Percent Eluted by Fraction, 3M NaCl: 0%
  Percent Eluted by Fraction, Flow: 19%
A1PI [3]; [20]
  Mass A1PI per Eluate Fraction, 1M NaCl: 0.05 mg
  Mass A1PI per Eluate Fraction, 2% Acetic Acid: 0.57 mg
  Mass A1PI per Eluate Fraction, Flowthrough: 0.22 mg
A1PI [3]; Table 11, A1PI
  Percent Eluted by Fraction, 1M NaCl: 6%
  Percent Eluted by Fraction, 2% Acetic Acid: 68%
  Percent Eluted by Fraction, Flowthrough: 27%
